Experimental data reported in the Immune Epitope Database (IEDB).
pIC50, pKd: −log10 of the molar value.

How the values were obtained:
HLA-B*44:02 = assay: IEDB peptide-MHC binding, purified MHC/competitive/radioactivity; filed as Kd, often an IC50 or EC50 that approximates it; ≥ and ≤ were set here for values at or beyond the usual limits of such assays
HLA-B*44:03 = assay: as above
HLA-A*29:02 = assay: as above
HLA-B*40:01 = assay: as above
HLA-A*24:02 = assay: IEDB peptide-MHC binding, purified MHC/competitive/fluorescence; ≥ and ≤ were set here for values at or beyond the usual limits of such assays
HLA-A*02:01 = assay: as above
HLA-A*26:01 [1] = assay: IEDB peptide-MHC binding, purified MHC/direct/fluorescence; filed as Kd, often an IC50 or EC50 that approximates it; ≥ and ≤ were set here for values at or beyond the usual limits of such assays
HLA-A*32:01 = assay: IEDB peptide-MHC binding, purified MHC/competitive/radioactivity; filed as Kd, often an IC50 or EC50 that approximates it; ≥ and ≤ were set here for values at or beyond the usual limits of such assays
HLA-A*01:01 = assay: as above
HLA-A*30:02 = assay: as above
HLA-A*30:01 = assay: as above
HLA-B*08:01 = assay: as above
HLA-B*15:01 [2] = assay: as above
HLA-B*15:01 [3] = assay: IEDB peptide-MHC binding, purified MHC/competitive/fluorescence; filed as Kd, often an IC50 or EC50 that approximates it; ≥ and ≤ were set here for values at or beyond the usual limits of such assays
HLA-B*35:01 = assay: IEDB peptide-MHC binding, purified MHC/competitive/radioactivity; filed as Kd, often an IC50 or EC50 that approximates it; ≥ and ≤ were set here for values at or beyond the usual limits of such assays
HLA-A*26:01 [4] = assay: as above
HLA-B*51:01 = assay: as above
[5] = source organism: Dengue virus 4 Philippines/H241/1956
[6] = source organism: Zaire ebolavirus
[7] = source organism: Vaccinia virus
[8] = source organism: Mammarenavirus juninense
[9] = source organism: Vaccinia virus WR
[10] = source organism: Dengue virus 2 Jamaica/1409/1983
[11] = source organism: Dengue virus 2 Peru/IQT2913/1996
[12] = source organism: Dengue virus 3 Martinique/1243/1999
[13] = source organism: Dengue virus 1 Brazil/97-11/1997
[14] = source organism: Mammarenavirus brazilense
[15] = source organism: Vaccinia virus Copenhagen
[16] = source organism: Dengue virus 3 Sri Lanka/1266/2000
[17] = source organism: Dengue virus 3 Singapore/8120/1995

## AELLNIPFLY
HLA-B*44:02; source organism: Homo sapiens
  pKd: 8.30
HLA-B*44:03; source organism: Homo sapiens
  pKd: 8.57
HLA-A*29:02; source organism: Homo sapiens
  pKd: 6.97

## AETQHGTTV
HLA-B*40:01; [5]
  pKd: 7.68
HLA-B*44:03; [5]
  pKd: 5.84

## AKNISGQSP
HLA-A*24:02; [6]
  pIC50: ≤ 3.26

## ATNLEYKTL
HLA-A*02:01; [7]
  pIC50: ≤ 4.07
HLA-A*24:02; [7]
  pIC50: 4.36

## CVLEAMAFL
HLA-A*26:01 [1]; source organism: Influenza A virus (A/chicken/Hebei/nj/2002(H9N2))
  pKd: ≤ 4.70

## ECLPAAPDG
HLA-A*24:02; [6]
  pIC50: ≤ 3.40

## EGIYIEGLM
HLA-A*24:02; [6]
  pIC50: ≤ 3.81

## ELGNILSVY
HLA-A*32:01; [8]
  pKd: ≤ 4.11
HLA-A*01:01; [8]
  pKd: 4.78
HLA-A*30:02; [8]
  pKd: 8.40
HLA-A*30:01; [8]
  pKd: 4.96
HLA-A*29:02; [8]
  pKd: 4.96
HLA-A*26:01 [1]; [8]
  pKd: 7.78

## ESKMSFLPI
HLA-B*08:01; [9]
  pKd: 8.97
HLA-B*15:01 [2]; [9]
  pKd: 6.45

## FEKQLGQVM
HLA-B*40:01; [10]
  pKd: 6.28
HLA-B*44:02; [10]
  pKd: 6.50

## FFQVIAKRY
HLA-B*15:01 [3]; source organism: Yersinia pestis Antiqua
  pKd: ≤ 4.70

## FGAQHSTTL
HLA-A*24:02; source organism: Sudan ebolavirus
  pIC50: 4.22

## FIFNIIMSF
HLA-B*15:01 [2]; [9]
  pKd: 6.40

## FTMRHKKATY
HLA-A*01:01; [11]
  pKd: 5.90
HLA-A*30:02; [11]
  pKd: ≤ 4.36
HLA-B*15:01 [2]; [11]
  pKd: 6.86

## GMMDGWYGF
HLA-B*15:01 [3]; source organism: Influenza A virus (A/Queensland/11/2001(H3N2))
  pKd: 7.66

## GPTPELEEEM
HLA-B*35:01; [12]
  pKd: 5.38

## HVTRGAVLTY
HLA-A*26:01 [4]; [12]
  pKd: 6.94
HLA-B*15:01 [2]; [12]
  pKd: 7.03

## IDFLLQRWG
HLA-A*02:01; [6]
  pIC50: ≤ 3.87
HLA-A*24:02; [6]
  pIC50: 4.16

## IIIPFIAYF
HLA-B*15:01 [2]; [9]
  pKd: 8.80

## IMSKDKPTI
HLA-A*24:02; source organism: West Nile virus
  pIC50: 5.70

## IPEPDRQRTP
HLA-B*35:01; [13]
  pKd: 7.64

## IPLQWIASAI
HLA-B*51:01; [12]
  pKd: 8.13

## KEISNMLSI
HLA-B*40:01; [12]
  pKd: 8.19
HLA-A*32:01; [12]
  pKd: 5.20
HLA-B*44:02; [12]
  pKd: 7.55
HLA-B*44:03; [12]
  pKd: 7.66

## KPWDVIPMV
HLA-B*51:01; [13]
  pKd: 5.95

## KVKSCLCSF
HLA-B*15:01 [2]; [9]
  pKd: 7.78

## KVNACHHNY
HLA-A*32:01; [14]
  pKd: 6.35
HLA-A*01:01; [14]
  pKd: 5.42
HLA-A*30:02; [14]
  pKd: 7.93
HLA-A*30:01; [14]
  pKd: 6.30
HLA-A*26:01 [4]; [14]
  pKd: ≤ 4.11
HLA-A*29:02; [14]
  pKd: 6.94

## KVSCSMLEF
HLA-B*15:01 [2]; [15]
  pKd: 9.08

## KVSIYKTHI
HLA-B*15:01 [2]; [9]
  pKd: 5.84

## LAGPISQHNY
HLA-A*30:02; [16]
  pKd: ≤ 4.22
HLA-B*35:01; [16]
  pKd: 6.73

## LANFLCLLM
HLA-B*15:01 [2]; [9]
  pKd: 5.88

## LATLRKLCI
HLA-B*08:01; [12]
  pKd: 6.44
HLA-B*51:01; [12]
  pKd: 5.60

## LAVWNRVWI
HLA-B*51:01; [10]
  pKd: 5.31

## LECSPRTGL
HLA-B*40:01; [12]
  pKd: 6.22

## LEKASFIEV
HLA-B*40:01; [17]
  pKd: 5.98
HLA-B*44:02; [17]
  pKd: 5.02

## LILSCIFAF
HLA-A*32:01; [15]
  pKd: 6.37
HLA-B*15:01 [2]; [15]
  pKd: 6.27

## LIVMDEAHF
HLA-B*15:01 [2]; [5]
  pKd: 7.51

## LIWKVNPEI
HLA-A*02:01; [6]
  pIC50: 6.37
HLA-A*24:02; [6]
  pIC50: 5.88

## LLHRCIYHY
HLA-B*15:01 [2]; [9]
  pKd: 7.37
